# Numbering of substitutions follows the chain as printed.
# B1: Ab19 (antibody, human IgG1, kappa, V domains shown)
# VH: EVQLVQSGAEVKKPGSSVKVSCKASGYTFTTYWMHWVRQAPGQGLEWIGEIDPSDSYSNYNQKFKDRATLTVDKSTSTAYMELSSLRSEDTAVYYCARNGGLGPAWFSYWGQGTLVTVSS
# VL: DIQMTQSPSSVSASVGDRVTITCKASQYVGTAVAWYQQKPGKSPKLLIYSASNRYTGVPSRFSDSGSGTDFTLTISSLQPEDFATYFCQQYSSYPWTFGGGTKVEIKR
# notes: humanized from Ab6; G1; also called Ab1 HC.1a and Ab1 LC.1a
# B2: Ab6 (antibody, V domains shown)
# VH: QVQLQQPGAELVMPGSSVKLSCKASGYTFTTYWMHWVKQRPGQGLEWIGEIDPSDSYSNYNQKFKDKATLTVDKSSSTAYMQLSSLTSEDSAVYYCARNGGLGPAWFSYWGQGTLVTVSA
# VL: DIVMTQSQKFMSTTVGDRVSITCKASQYVGTAVAWYQQKPGQSPKLLIYSASNRYTGVPDRFTDSGSGTDFTLTISNLQSEDLADYFCQQYSSYPWTFGGGTKLEIK
# notes: murine monoclonal, isotype G1; also called murine Ab6
# B3: Ab5 (antibody, V domains shown)
# VH: QVQLQQPGAELVRPGTSVKLSCKASGYTFTSFWMHWVKQRPGQGLEWIGVIDPSDTYTNYNQKFKGKATLTVDTSSSTAYMQLSSLTSEDSAVYYCARGDYSNWFTYWGQGTLVTVSA
# VL: DVVMTQTPLSLPVSLGDQASISCRSSQRLVHSNGNTYLHWYLQKPGQSPKLLIYKVSNRFSGVPDRFSGSGSGTDFTLKISRVEAEDLGVYFCSQSTHVPWTFGGGTKLEIK
# notes: murine monoclonal, isotype G2a; also called murine Ab5
# B4: Ab7 (antibody, V domains shown)
# VH: QVQLQQPGAELVMPGTSVKLSCKASGYTFTSYWIHWVKQRPGQGLEWIGEIDPSDSYTNYNQKFKGKATLTVDRSSSTAYMQLSSLTSEDSAVYYCGRSFFTNWFAYWGQGTLVTVSA
# VL: B3 VL with R28S, S81N, W101F, G105S
# notes: murine monoclonal, isotype G1; also called murine Ab7
# B5: Ab12 (antibody, V domains shown)
# VH: DVQLQESGPGLVKPSQSLSLTCTVTGYSITSDYAWNWIRQFPGNKLEWMGYIGYSGRTSFNPSLKSRISITRDTSKNQFFLQLNSVTTEDTATYYCARGGFAMDYWGQGTSVTVSS
# VL: QIVLTQSPGIMSASPGEKVTMTCSASSSVTYMYWYQQKPRSSPKPWIYLTSNLASGVPARFSGSGSGTSYSLTISSMEAEDGATYYCQQWSSTPPLTFGGGTKLELN
# notes: murine monoclonal, isotype G2a; reported as PRLR agonist; also called murine Ab12
# B6: Ab10 (antibody, V domains shown)
# VH: EVQLHQSGPELVKPGASVKISCKASGYTFTDYNMHWMKQSHGKSLEWIGYFYPYNGGTGYNQEFKNKATLTVDISSSTAYMELRRLTSEDSAVYYCARGGWGIYYAMDYWGQGTSVTVSS
# VL: DIQMTQSPASLSASVGETVTITCRASENIYSYLTWYQQKQGKSPQLLVYNAKTLAEGVPSRFSGSGSGTQFSLKINSLQPEDFGSYHCQHHSVTPLTFGAGTKLELK
# notes: murine monoclonal, isotype G2a; also called murine Ab10
# B7: Ab21 (antibody, human IgG1, kappa, V domains shown)
# VH: B1 VH
# VL: EIVMTQSPATLSVSPGERATLSCKASQYVGTAVAWYQQKPGQSPRLLIYSASNRYTGVPARFSDSGSGTEFTLTISSLQSEDFAVYFCQQYSSYPWTFGGGTKVEIKR
# notes: humanized from Ab6; G1; also called Ab1 HC.1a and Ab1 LC.2a
# B8: Ab11 (antibody, V domains shown)
# VH: EVKLVESGGGLVQPGGSLKLSCAASGFTFSDYYMFWVRQTPEKSLEWVAYISNGGGSTYYPDTVKGRFTISRDNAKNTLYLQMSRLKSEDTAMYYCSRQLFYYGSRGAMGYWGQGTSVTVSS
# VL: B3 VL with V3L, R28S, L29I, H39E, F92Y, S94F, S96G, T97S, W101F, G105S
# notes: murine monoclonal, isotype G1; also called murine Ab11
# B9: Ab13 (antibody, V domains shown)
# VH: B3 VH with T56S, Y57H, D73N, Q82H
# VL: B3 VL with L9F, R28S, G89E, V90L
# notes: murine monoclonal, isotype G2a; also called murine Ab13
# B10: Ab49 (antibody, human IgG1, kappa, V domains shown)
# VH: EVQLVQSGAEVKKPGASVKVSCKASGYTFTDYNIHWVRQAPGQGLEWIGYIYPNNDGTGYNQKFKSRATLTVDNSTSTAYMELRSLRSDDTAVYYCARGDGNYVGDMDYWGQGTTVTVSS
# VL: DIQMTQSPSSLSASVGDRVTITCRASENIYSYLAWYQQKPGKAPKLLVYNAKTLAEGVPSRFSGSGSGTDFTLTISSLQPEDFATYYCQHHYATPFTFGQGTKLEIKR
# notes: humanized from Ab8; G1; also called Ab3 HC.1a and Ab3 LC.1b
# Molecular target: T1, cyno PRLR (Biacore antigen) (cyno, UniProt A0A2K5WXK1 25-234)
# T1 construct: also called cyPRLR
# T1 sequence: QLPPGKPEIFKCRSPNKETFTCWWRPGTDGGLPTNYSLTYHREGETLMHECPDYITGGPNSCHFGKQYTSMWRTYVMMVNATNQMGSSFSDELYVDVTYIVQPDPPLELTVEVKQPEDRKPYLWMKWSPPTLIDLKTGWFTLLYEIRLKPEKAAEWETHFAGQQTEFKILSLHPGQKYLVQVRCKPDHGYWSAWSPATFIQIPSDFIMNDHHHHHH
# Test: SPR Biacore
# Procedure, shortened: (§1)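 Association rate, dissociation rate and dissociation constant were measured by surface plasmon resonance on a Biacore instrument. PRLR antigen was tested at 600 nM, 66.67 nM and 7.41 nM, a 3-point, 9-fold dilution series. Constants came from a 1:1 binding model fit (local Rmax, mass-transport term included) in Biacore T200 Evaluation Software.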
Binder,Kd [nM],koff [s⁻¹],kon [M⁻¹ s⁻¹]
B1,0.691,0.000728,1.05e+06
B2,0.807,0.00109,1.36e+06
B3,0.7,0.000235,336000
B4,0.127,3.29e-05,259000

# Molecular target: T2, murine PRLR (Biacore antigen) (murine, UniProt Q08501 20-229, limits assumed)
# T2 construct: also called muPRLR
# T2 sequence (looked up): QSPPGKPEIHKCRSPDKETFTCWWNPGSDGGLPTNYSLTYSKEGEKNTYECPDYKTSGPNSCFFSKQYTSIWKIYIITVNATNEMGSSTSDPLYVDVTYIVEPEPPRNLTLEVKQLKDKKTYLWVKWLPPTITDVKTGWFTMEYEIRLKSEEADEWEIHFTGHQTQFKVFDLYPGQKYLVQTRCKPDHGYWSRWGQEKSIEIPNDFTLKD
# Test: SPR Biacore
# Procedure, shortened: as §1
Binder,Kd [nM],koff [s⁻¹],kon [M⁻¹ s⁻¹]
B2,635,0.394,622000
B3,14.4,0.00291,202000
B4,41.7,0.0035,84000

# Molecular target: T3, human PRLR (Biacore antigen) (human, UniProt P16471 25-234, limits assumed)
# T3 construct: The construct injected over captured antibody is not described (a soluble form is likely); also called huPRLR
# T3 sequence: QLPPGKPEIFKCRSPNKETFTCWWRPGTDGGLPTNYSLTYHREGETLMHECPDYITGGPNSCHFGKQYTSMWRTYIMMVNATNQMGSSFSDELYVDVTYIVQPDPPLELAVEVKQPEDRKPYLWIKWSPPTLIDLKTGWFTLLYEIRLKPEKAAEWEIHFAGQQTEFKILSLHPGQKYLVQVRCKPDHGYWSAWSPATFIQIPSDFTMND
# Test: SPR Biacore
# Procedure, shortened: as §1
Binder,Kd [nM],koff [s⁻¹],kon [M⁻¹ s⁻¹]
B5,6.6,0.00186,282000
B6,1.41,0.000228,161000
B1,0.409,0.000403,985000
B7,0.554,0.000586,1.06e+06
B2,0.45,0.000576,1.28e+06
B3,0.572,0.000203,355000
B8,69.2,0.0211,305000
B4,0.153,4.27e-05,280000
B9,0.997,0.000431,433000
B10,0.214,0.00012,558000

# Molecular target: T4, human PRLR on cells (human, UniProt P16471 25-622)
# T4 sequence: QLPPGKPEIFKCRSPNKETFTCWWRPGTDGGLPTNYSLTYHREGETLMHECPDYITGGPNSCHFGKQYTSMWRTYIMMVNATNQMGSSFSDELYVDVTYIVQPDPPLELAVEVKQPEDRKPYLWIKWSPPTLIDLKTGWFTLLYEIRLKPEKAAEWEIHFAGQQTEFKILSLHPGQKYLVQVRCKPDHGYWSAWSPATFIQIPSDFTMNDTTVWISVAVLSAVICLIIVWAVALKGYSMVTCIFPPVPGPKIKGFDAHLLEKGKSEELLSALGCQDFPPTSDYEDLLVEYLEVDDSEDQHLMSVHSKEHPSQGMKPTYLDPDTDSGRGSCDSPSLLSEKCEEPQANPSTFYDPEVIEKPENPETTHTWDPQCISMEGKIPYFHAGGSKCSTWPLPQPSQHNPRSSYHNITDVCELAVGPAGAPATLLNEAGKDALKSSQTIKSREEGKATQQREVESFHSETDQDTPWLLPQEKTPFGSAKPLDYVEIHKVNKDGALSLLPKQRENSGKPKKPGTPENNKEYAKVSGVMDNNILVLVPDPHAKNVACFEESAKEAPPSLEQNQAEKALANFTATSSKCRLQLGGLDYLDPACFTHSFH
# Test: cell-based or functional assay
Binder,T47D pPRLR ELISA IC50 [µg/mL],Baf3-hPRLR proliferation IC50 [µg/mL]
B5,0.538,–
B6,0.362,3.14
B1,–,0.12
B7,–,0.15
B2,0.039,0.26
B3,0.038,0.24
B8,0.047,1.11
B4,0.08,0.28
B9,0.047,0.32
B10,–,0.37

# Molecular target: cyno PRLR on Baf3-cyPRLR cells (cyno)
# Test: cell-based or functional assay
row,Binder,Baf3-cyPRLR proliferation IC50 [µg/mL]
1,B5,> 30
2,B6,> 10
3,B1,0.13
4,B7,0.15
5,B2,0.44
6,B3,0.38
7,B8,1.2
8,B4,0.3
9,B9,0.85
10,B10,3.49

# Molecular target: T3, human PRLR (Biacore antigen)
# Test: SPR simultaneous binding; PRLR held by surface mAb Ab19
# Procedure: (§2) Running buffer was HBS-EP+ (10 mM Hepes, pH7.4, 150 mM NaCl, 3 mM EDTA, 0.05% surfactant). Assay was performed at 12° C. using Biacore T200 and CM5 sensor chips with anti-human IgG (Pierce) amine-coupled in all 4 flow cells to ˜2000 RU.
# (§3) Separate test mAbs were captured in flowcells 2, 3 & 4 (flowcell 1 was reference, no test mAb). All 4 flowcells were then blocked by injection with isotype control mAb at 50 ug/ml. All 4 flowcells were then injected with antigen or buffer only (buffer only is for double referencing, done for each mAb pair individually). All 4 flowcells were then injected with 2nd test mAb at 10 ug/ml. All 4 flowcells were then regenerated with glycine, pH1.5.
row,Binder,"solution mAb binding, % of PRLR binding [%]"
1,B1,-1
2,B7,-1
3,B10,-1

# Molecular target: T3, human PRLR (Biacore antigen)
# Test: SPR simultaneous binding; PRLR held by surface mAb Ab30
# Procedure: as §2, §3
row,Binder,"solution mAb binding, % of PRLR binding [%]"
1,B1,-1
2,B7,-1
3,B10,-1

# Molecular target: T3, human PRLR (Biacore antigen)
# Test: SPR simultaneous binding; PRLR held by surface mAb LFA102
# Procedure: as §2, §3
row,Binder,"solution mAb binding, % of PRLR binding [%]"
1,B1,122
2,B7,104
3,B10,-2

# — patent US20170022281A1 (AbbVie / Abbott, published 2017)
